The values that follow are results of earlier work, collected in publication PMC10502159.

As a reminder, the Kd is the free concentration of one partner at which half of the binding sites on the other are occupied at equilibrium, for simple one-to-one binding.

Series [1] deals with pCTS-L (procathepsin L) (Homo sapiens) (UniProt P07711). Nature of the series: OpenSPR.
Series [2] has as its target EGFR ECD (Homo sapiens) (UniProt P00533). Nature of the series: SPR (Biacore). On the technique in general: SPR reads the build-up and loss of mass on a sensor chip optically.
The target is the same in series [3]. Description: SPR (OpenSPR).
Another series addresses TLR4 (Homo sapiens) (UniProt O00206). Nature of the series: OpenSPR.
The target in series [4] is TLR4 1-631 (Homo sapiens) (UniProt O00206). Nature of the series: SPR.
Chain of TLR4 1-631 (Homo sapiens) (O00206 1-631): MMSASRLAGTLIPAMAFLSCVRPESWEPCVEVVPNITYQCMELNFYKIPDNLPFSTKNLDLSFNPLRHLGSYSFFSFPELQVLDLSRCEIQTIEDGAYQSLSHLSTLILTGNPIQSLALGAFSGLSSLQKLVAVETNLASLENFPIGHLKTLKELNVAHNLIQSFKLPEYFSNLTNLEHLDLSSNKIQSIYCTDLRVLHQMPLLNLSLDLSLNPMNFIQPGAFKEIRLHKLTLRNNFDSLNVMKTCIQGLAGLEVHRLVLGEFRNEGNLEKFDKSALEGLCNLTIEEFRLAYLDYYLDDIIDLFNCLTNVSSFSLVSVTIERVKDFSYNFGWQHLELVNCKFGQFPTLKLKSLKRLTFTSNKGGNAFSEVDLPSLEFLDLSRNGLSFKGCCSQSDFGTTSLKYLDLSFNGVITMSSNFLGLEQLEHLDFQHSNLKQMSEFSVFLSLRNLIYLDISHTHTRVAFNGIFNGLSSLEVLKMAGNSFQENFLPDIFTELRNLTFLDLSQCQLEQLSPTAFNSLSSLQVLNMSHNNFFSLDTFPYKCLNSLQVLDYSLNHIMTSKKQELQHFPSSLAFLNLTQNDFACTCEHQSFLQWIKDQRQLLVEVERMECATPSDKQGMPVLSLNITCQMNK

Chain of dermcidin (P81605 20-110): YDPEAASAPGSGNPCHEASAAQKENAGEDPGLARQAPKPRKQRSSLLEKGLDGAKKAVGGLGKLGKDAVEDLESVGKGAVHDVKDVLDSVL
Chain of pCTS-L (procathepsin L) (Homo sapiens) (P07711 18-333): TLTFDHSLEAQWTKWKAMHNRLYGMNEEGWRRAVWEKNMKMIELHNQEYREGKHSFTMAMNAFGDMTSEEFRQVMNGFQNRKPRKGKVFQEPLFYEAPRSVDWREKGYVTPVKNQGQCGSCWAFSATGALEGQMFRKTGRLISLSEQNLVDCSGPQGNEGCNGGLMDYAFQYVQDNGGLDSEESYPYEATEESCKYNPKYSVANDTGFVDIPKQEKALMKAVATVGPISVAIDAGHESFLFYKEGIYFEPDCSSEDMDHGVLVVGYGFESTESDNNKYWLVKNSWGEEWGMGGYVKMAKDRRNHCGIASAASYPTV
Chain of pCTS-L (procathepsin L) (P07711 18-333): as above
Chain of TLR4 (Homo sapiens) (O00206 24-631): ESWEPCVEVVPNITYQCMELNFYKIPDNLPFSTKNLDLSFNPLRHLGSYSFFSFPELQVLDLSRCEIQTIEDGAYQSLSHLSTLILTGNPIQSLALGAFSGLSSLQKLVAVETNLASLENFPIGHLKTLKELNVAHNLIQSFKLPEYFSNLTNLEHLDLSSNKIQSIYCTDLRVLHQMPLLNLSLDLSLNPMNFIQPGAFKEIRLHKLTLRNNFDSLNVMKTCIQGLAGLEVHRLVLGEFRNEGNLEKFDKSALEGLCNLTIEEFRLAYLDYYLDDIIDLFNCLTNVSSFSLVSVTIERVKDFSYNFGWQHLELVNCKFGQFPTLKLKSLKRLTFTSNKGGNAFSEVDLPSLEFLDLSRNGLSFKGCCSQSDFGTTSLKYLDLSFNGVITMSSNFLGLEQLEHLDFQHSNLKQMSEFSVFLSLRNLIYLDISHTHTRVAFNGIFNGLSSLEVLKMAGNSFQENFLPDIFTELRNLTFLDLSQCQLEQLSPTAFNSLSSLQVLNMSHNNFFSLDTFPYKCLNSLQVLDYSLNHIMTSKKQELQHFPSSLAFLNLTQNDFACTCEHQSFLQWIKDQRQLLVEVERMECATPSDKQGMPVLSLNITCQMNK
Chain of TLR4 (O00206 24-631): as above
Chain of procathepsin L (pCTS-L) 17-333 (P07711 17-333): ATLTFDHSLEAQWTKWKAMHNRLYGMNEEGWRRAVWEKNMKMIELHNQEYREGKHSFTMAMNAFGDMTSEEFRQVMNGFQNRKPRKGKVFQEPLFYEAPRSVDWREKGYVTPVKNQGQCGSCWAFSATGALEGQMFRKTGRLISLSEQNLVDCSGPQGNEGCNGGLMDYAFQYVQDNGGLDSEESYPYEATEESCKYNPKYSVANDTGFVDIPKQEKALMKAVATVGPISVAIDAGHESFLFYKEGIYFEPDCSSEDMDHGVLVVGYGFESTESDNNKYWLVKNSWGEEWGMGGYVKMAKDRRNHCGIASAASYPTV

In the case of TLR4 (from UniProt O00206), in series [1], the Kd is 0.0646 µM.
In the case of dermcidin (from UniProt P81605), the Kd with EGFR ECD (Homo sapiens) [2] was 0.0588 µM; in the series with EGFR ECD (Homo sapiens) [3], 0.0581 µM.
Take “pCTS-L (procathepsin L) (from UniProt P07711)”: the Kd in the series with TLR4 (Homo sapiens) was 0.0202 µM.
“procathepsin L (pCTS-L) 17-333 (from UniProt P07711)”: in series [4], the Kd was 0.0646 µM.
